Measurements from patent US20220315908A1, “NOVEL GARDNERELLA ENDOLYSINS AND USES THEREOF” (priority 2019, published 2022).

Key:
G. piotii strain Gv_17 = test: Quantitative reduction in viable CFU assay in bacterial suspension; format: cell-based, Gardnerella piotii; conditions: 5 hours, pH 5.0, anaerobic, 10 ul endolysin (0.2 mg/ml where possible) + 90 ul 5e7 CFU/ml, average of triplicate
Method: The lysis activity on the four main species of Gardnerella of 91 constructs (natural and domain-swapped endolysins) was quantitatively assessed using the method described in Reference Example 2. Briefly, 90 ul 5e7 CFU/ml of the indicated strain were incubated for 5 hours at pH 5.0 under anaerobic conditions with 10 ul endolysin (concentration adjusted to 0.2 mg/ml where possible, see Table 4).
The results are shown in FIGS. 8A to 8D together with Tables 5A to 5C. In FIGS. 8A to 8D, the logarithmic Y axis depicts the count of surviving cells. The dotted line indicates the limit of detection (LOD) given by plating of 2 ul of the reaction mix (500 CFU/ml). Each combination of the natural 10 H-domains and the natural 9 B-regions was assessed, including the natural endolysins (H1B1, H2B2, H3B3, etc.), plus H6B6. […] The activity of each construct was measured on each of the 4 main Gardnerella species G. vaginalis sensu stricto, G. leopoldii, G. piotii, and G. swidsinkii. All conditions have been measured in triplicate. The survival after 5 hours incubation at pH 5.0 under anaerobic conditions with endolysins vs. buffer was measured by quantitative plating. The values indicate the log 10 of the ratio of surviving CFU for treated vs. untreated cells. The average of the triplicate measurements is used. In tables 5A and 5B, high negative log 10 values, e.g. −6.7, −5.5, −4.8 etc. are associated with high enzymatic activity, while log 10 values closer to zero or even positive log 10 values are associated with low or no enzymatic activity. […] Inversely, a reduction value of −3.7 means a 10^3.7-fold (=5012-fold) reduction of viable CFU in treated sample vs. untreated control.
(§1) Gardnerella cells were recovered from cryo stock by plating on Chocolate Agar plates (Beckton Dickinson) and incubating for 48 h at 37° C. under anaerobic conditions. For Lactobacilli, BD Schaedler/5% sheep blood agar plates were used instead. Colonies were scraped from the plate, resuspended in Hardy Broth or NYC-III-HS-5.0 at the pH as indicated, and the suspension adjusted to OD (610 or 620 nm as indicated) 0.1. It has to be noted that two Tecan Microplate readers, having respectively a 610 nm or 620 nm filter, have been used interchangeably in the experiments. Although it doesn't make any difference for the experiments, the exact wavelength used is specified in each example. If not stated otherwise, 90 μl cell suspension was mixed with 10 μl endolysin solution, for the different species/endolysin combinations, in 384-well plates. OD(610-620 nm as indicated) was measured at the beginning of the reaction and at the end, either as two measurement points or as a continuous kinetic in a Tecan F200 Microplate reader. The reactions were incubated for 5 hours (or otherwise the time indicated) at 37° C. under anaerobic, micro-aerophilic or aerobic conditions as indicated. Anaerobic conditions intend that oxygen was fully depleted from the container in which the bacteria are incubated (Sigma-Aldrich anaerobic jar or sealable lunch box) with an anaerobic sachet, and the lack of oxygen was confirmed with an anaerobic indicator inside the container. Where micro-aerophilic conditions are indicated, the candle-in-a-jar method was used (tea candle lit in an appropriate sealable container, which reduces oxygen levels until the flame dies out). Then each well was diluted in 5 steps (10^−1 to 10^−5) using 96-U-well bottom plates, and 2 μl of each dilution of each reaction mix are plated on BD Chocolate agar plates or BD Schaedler/5% sheep blood agar plates for Gardnerella and Lactobacilli, respectively, for detecting and quantifying surviving CFU. Detection plates were incubated at 37° C. for 48 hours under anaerobic conditions.

Gardnerella cells = test: Turbidity reduction (OD) assay of Gardnerella suspensions; format: cell-based; conditions: Gv_10 pH 6.0, Gv_17 pH 7.0, Gv_23 pH 7.4; aerobic, room temperature; vs buffer
Method: FIGS. 4A to 4C show three enzymatic activity assays where the enzymatic activity of natural Gardnerella prophage endolysins of the present disclosure is measured by detecting the change in turbidity of a suspension of Gardnerella cells. In FIG. 4A, the enzymatic activity of the endolysins is measured by detecting the change in turbidity of a suspension of the G. leopoldii strain Gv_10 at pH 6.0. In FIG. 4B, the enzymatic activity of the endolysins is measured by detecting the change in turbidity of a suspension of the G. piotii strain Gv_17 at pH 7.0. In FIG. 4C, the enzymatic activity of the endolysins is measured by detecting the change in turbidity of a suspension of the G. swidsinskii strain Gv_23 at pH 7.4. Treatment was conducted in a medium adjusted to the appropriate pH in a photometric cuvette against buffer. Then, the change in turbidity was assessed by measuring the optical density (OD) at 600 nm. As a result, the drop in turbidity was more pronounced for the endolysin treated groups than for the buffer, indicating enzymatic activity.
To test the activity of the purified endolysins, the turbidity change of Gardnerella suspensions (see Table 2) was measured at 610-620 nm using essentially the method described in Reference Example 2, where 95 ul of bacterial suspension in Hardy Broth at the indicated pH was mixed with 5 ul of endolysin solution in a photometric cuvette under aerobic conditions at room temperature. In turbidity reduction assays, a decrease in light scattering (i.e., turbidity reduction) of a suspension of live cells can be used in a spectrophotometer to assay the activity of peptidoglycan hydrolases. The reduction in optical density over time (minutes) can be used to calculate a rate of hydrolysis. Results are compared to a “no-enzyme added, buffer only” control preparation treated identically for the same period of time. In this manner, a specific activity of the enzyme preparation can be reported as ΔOD/time/ul lysin protein. […] As explained above, due to the low content of peptidoglycan in the cell wall, the fact that a peptidoglycan-degrading enzyme such as the identified endolysins could efficiently lyse the bacterial cell walls was an unexpected and surprising discovery.
as §1, with “Then each well was diluted in 5 steps (10^−1 to 10^−5) using 96-U-well bottom plates, and 2 μl of each dilution of each reaction mix are plated on BD Chocolate agar plates or BD Schaedler/5% sheep blood agar plates for Gardnerella and Lactobacilli, respectively, for detecting and quantifying surviving CFU. Detection plates were incubated at 37° C. for 48 hours under anaerobic conditions.” left out

Molecule | log 10 of the ratio of surviving CFU for treated vs. untreated cells (G. piotii strain Gv_17) [log 10] | enzymatic activity by drop in turbidity (capacity to lyse Gardnerella cell walls) (Gardnerella cells)
H1B1: natural Gardnerella prophage endolysin from strain HMP9231 (protein, EL1_strain_HMP9231, natural Gardnerella prophage endolysin from strain HMP9231) MSKKGIDVSEWQGDIDFNAVKASGVEFVIIRAGYGIGCKDKWFEQNYRKAKTAGLDVGAYWYSYANSGFEAAEEAQSLMNMLSGKSFEYPVYFDLEEKSQLNRGRAFCDSLITSFCNKLEACGYYAGFYTSLSTANNLVSAHVRNRYALWIAQWNTHCNYQGSYGLWQYSSNGSVPGVAGRVDMDYAYVDYPSIIKNAGLNGCKNGGSDQAARTSSIDEVAREVINGAWGNGSTRKQRLTSAGYDYASVQNKVNELLGVKACRKSVDELAREVIRGAWGNGSTRKQRLAQAGYDYDTVQKRVNELL | −0.9 | active
H3B3: natural Gardnerella prophage endolysin from strain Gv18-4 (protein, EL3_strain_Gv18-4) MSKKGIDVSVWQGDIDFNSVKASGVEFVIIRAGYGIGHKDKWFEENYRKAKTAGLDVGSYWYSYASSAGEASEEAQSCVNILSGKSFEYPIYFDLEEKSQLNRGRDFCDSLITSFCNKLEACGYYAGFYTSLSVANNLVSSHVRDRYALWIAQWNTHCSYQGSYGLWQYSSSGSVNGIAGRVDMDYAYVDYPSVIKNAGLNGYQNGGSYTAPQTSSIDEVAREVINGDWGNGNDRKNRLISAGYDYASVQNKVNELLGVKAYRKSVDELAREVIRGTWGNGSMRKHRLTQAGYDYDAVQKRVNELL | −1.5 | active
H5B5: natural Gardnerella prophage endolysin from strain JCP7276 (protein, EL5_strain_JCP7276, natural Gardnerella prophage endolysin from strain JCP7276) MSKKGIDVSEWQGDIDFNAVKASGVEFVIIRAGYGIGCKDKWFEQNYRKAKTAGLDVGAYWYSYANSSSEAAEEAQSCANMLSGKSFEYPVYFDLEEKSQLNRGRAFCDSLITGFCSKLEACGYYAGFYTSLSTANNLVSAHVRNRYALWIAQWNTHCSYQGSYGLWQYSSNGSVPGVAGRVDMDYAYKDYPSIIKNAGLNGCKNGGSDQAARTSSIDEVAREVINGAWGNGNERKQRLTQAGYDYTSVQNKVNKLLGVKACRKSVDELAREVIRGTWGNGNERKNRLTQAGYDYDTVQKRVNELL | −0.1 | active
H7B7: natural Gardnerella prophage endolysin from strain AMD (protein, EL7_strain_AMD, natural Gardnerella prophage endolysin from strain AMD) MSKKGIDVSEWQGDIDFNAVKASGVEFVIIRAGYGIGCKDKWFEQNYRKAKTAGLDVGAYWYSYANSASEAAEEAQSCANMLSGKSFEYPVYFDLEEKSQLNRGRAFCDSLITSFCSKLETYGYYAGFYTSLSTANNLVSSHVRNRYALWIAQWNTHCSYQGSYGLWQYSSSGSVPGVAGRVDMDYAYKDYPSIIKNAGLNGCKNGGSDQAARTSSIDEVAREVINGAWGNGNERKQRLTQAGYDYTSVQNKVNKLLGVKACRKSVDELAREVIRGTWGNGNERKNRLTQAGYDYDTVQKRVNELL | −1.2 | active
H2B2: natural Gardnerella prophage endolysin from strain Gv18-4 (protein, EL2_strain_Gv18-4) MSKRGIDVSEWQGDIDFNAVKASGVEFVIIRAGYGIGCKDKWFEQNYRKAKTCGLDVGAYWYSYANSGFEAAEEAQSCVNMLSGKSFEYPVYFDLEEKSQLNRGRAFCDSLITGFCNKLESCGYYAGFYTSLSTANNLVSAHVRNRYALWIAQWNTHCSYQGSYGLWQYSSSGSVPGVAGRVDMDYAYVDYPSIIKNVGLNGCKNGGSDQAARTSSIDEVAREVINGAWGNGNERKQRLTSAGYDYASVQNKVNELLGVKACRKSVDEIAREVIRGTWGNGSTRKQRLTQAGYDYDTVQKRVNELL | −2.5 | active
H4B4: natural Gardnerella prophage endolysin from strain Gv5-1 (protein, EL4_strain_Gv5-1) MSKKGIDVSEWQGDIDFNAVKASGVEFVIIRAGYGIGCKDKWFEQNYRKAKTCGLDVGAYWYSYANSGFEAAEEAQSCVNMLSGKSFEYPVYFDLEEKSQLNRGRAFCDSLITSFCSKLETYGYYAGFYTSLSVVNNLVSAHVRDRYALWIAQWNTHCSYQGSYGLWQYSSSGSVPGVAGRVDMDYAYVDYPSIIKNVGLNGCKNGGSDQATRTSSIDEVAREVINGAWGNGNERKQRLTSAGYDYASVQNKVNKLLGVKAYRKSVDELAREVIRGTWGNGNERKQRLAQAGYDYDTVQKRVNELL | −0.4 | active
